In US20100166746A1 (published 2010):

Biological target: T1, human EphA2 antigen (human, UniProt P29317 24-534, limits assumed)
T1 construct: also called human EphA2 tumor antigen
Test: kinetic parameters, ratio to G5 reference

T1 sequence (P29317 24-534 limits assumed): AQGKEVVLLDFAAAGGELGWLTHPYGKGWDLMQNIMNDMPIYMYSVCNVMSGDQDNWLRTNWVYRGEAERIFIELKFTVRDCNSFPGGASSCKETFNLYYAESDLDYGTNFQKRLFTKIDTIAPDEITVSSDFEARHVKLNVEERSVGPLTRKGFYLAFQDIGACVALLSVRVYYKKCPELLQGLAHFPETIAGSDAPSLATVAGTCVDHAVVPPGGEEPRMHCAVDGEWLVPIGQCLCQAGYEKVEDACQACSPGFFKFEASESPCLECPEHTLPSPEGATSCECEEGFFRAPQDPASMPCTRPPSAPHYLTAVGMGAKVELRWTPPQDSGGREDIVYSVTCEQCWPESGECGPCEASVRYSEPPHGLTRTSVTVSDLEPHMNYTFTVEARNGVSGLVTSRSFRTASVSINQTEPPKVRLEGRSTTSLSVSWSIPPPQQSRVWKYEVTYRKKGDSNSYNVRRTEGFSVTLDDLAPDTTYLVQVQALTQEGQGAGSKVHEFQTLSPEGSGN

B1: 3F2 anti-EphA2 antibody (antibody, V domains shown)
VH: EVQLVESGGGVVRPGGSLRLSCAASGFTVSDYSMNWVRQAPGKGLEWIGFIRNKANAYTTEYSASVKGRFTISRDDSKNTLYLQMNSLKTEDTAVYYCTTYPRYHAMDSWGQGTMVTVSS
VL: AIQLTQSPSSLSASVGDRVTITCRASQSISNNLHWYLQKPGQSPQLLIYYGFQSISGVPSRFSGSGSGTDFTLTISSLQPEDFATYYCQQANSWPLTFGGGTKLEIK
fold faster Koff as compared to G5: ~3 fold
fold faster Kon as compared to G5: ~3.5 fold
